Assay results as given in doi:10.1101/2020.06.23.166439.

Target: tail tube protein (TTP) gp17.1 of bacteriophage SPP1 (bacteriophage SPP1)
Test: cryo-EM structure + other: solid-state NMR

## tail tube protein (TTP) gp17.1 of bacteriophage SPP1 (natural protein)
  stoichiometry N: 6
